From article PMC4967814 (2016)

T1: recombinant human IFNα4 (human, UniProt P05014 24-189)
T1 chain: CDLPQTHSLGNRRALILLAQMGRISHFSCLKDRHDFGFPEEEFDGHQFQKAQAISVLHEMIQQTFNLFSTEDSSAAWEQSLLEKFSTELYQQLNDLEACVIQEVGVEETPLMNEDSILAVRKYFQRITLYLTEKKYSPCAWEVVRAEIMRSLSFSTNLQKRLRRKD

T2: recombinant human IFNα14 (human, UniProt P01570 24-189)
T2 chain: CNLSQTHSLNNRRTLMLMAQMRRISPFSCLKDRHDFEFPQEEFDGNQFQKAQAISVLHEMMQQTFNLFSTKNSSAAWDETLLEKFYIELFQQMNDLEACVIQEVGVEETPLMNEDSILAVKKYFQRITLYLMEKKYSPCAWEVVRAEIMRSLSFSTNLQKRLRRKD


Assays:
Test in all cases: SPR
recombinant human IFNω = recombinant human IFNω (human, UniProt P05000 22-195)
recombinant human IFNα4 = target: T1, recombinant human IFNα4
recombinant human IFNα14 = target: T2, recombinant human IFNα14

recombinant human IFNω, sequence (P05000 22-195): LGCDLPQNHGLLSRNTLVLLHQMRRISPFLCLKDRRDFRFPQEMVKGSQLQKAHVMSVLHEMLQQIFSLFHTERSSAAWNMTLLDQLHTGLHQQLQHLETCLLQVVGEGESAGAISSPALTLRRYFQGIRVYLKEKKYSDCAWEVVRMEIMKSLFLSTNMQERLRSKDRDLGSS

| Kd (recombinant human IFNω) | Kd (recombinant human IFNα4) | Kd (recombinant human IFNα14) | Binder |
| --- | --- | --- | --- |
| 0.125 pM | 0.0375 pM |  | 26B9, APS1/APECED patient-derived anti-IFN monoclonal antibody (antibody, V domains shown) VH: QILLQESGPGLVKPTETLSLTCSVSGDSISDSSHYWAWIRQPPGKGPEWIGSVYFSSMTHYNPSLKSRVSISVDKPKNQFSLKVTSVTVADTATYYCARQALARVGAMNWFDPWGQGSLVTVSS VL: DIIMTQSPDSLPVSLGEGVTINCKSSQSVFFTSSNKSCLAWYQQKPGKSPKLLIYWASTRQSGVPDRFRGSGSGTDFSLTITSLQAEDVAVYFCQQCQTSPPTFGGGTRLEIK |
|  | 0.263 pM | 0.0611 pM | 19D11, APS1/APECED patient-derived anti-IFN monoclonal antibody (antibody, V domains shown) VH: QVQLVQSGAEVKRPGSSVRVSCRASGDTFSSYPISWVRQAPGQGLEWMGRILPALGVTNYAQNFRGRITITADKSPLTAYLELSSLRFEDTAVYYCASPSADIIPSILGTTLFAFWGQGSLVTVSS VL: EIVLTQSPGTLSLSPGEGATLSCRASQNVSRHYLTWYQQKPGQSPRLLIYGGSSRATGVPDRFSGGGSGTDFTLTISRLEPEDFAVFYCQSYHSPPPVYTFGQGTKVEIK |
